Data: patent US20120213801

T1: Flag-tagged Twist-1 WT from starved HEK293 cells (not phosphorylated)
T1 sequence: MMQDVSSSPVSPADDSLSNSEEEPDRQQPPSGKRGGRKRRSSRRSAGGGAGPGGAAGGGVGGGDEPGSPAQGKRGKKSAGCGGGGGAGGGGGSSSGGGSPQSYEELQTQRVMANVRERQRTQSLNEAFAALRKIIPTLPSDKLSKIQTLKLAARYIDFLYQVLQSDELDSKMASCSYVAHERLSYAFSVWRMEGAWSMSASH

T2: RKRRSSRRSAGG-S42/S45
T2 chain: RKRRSSRRSAGG

T3: GST-Twist-1 (full-length, substrate of the in vitro kinase assay)
T3 chain: T1 sequence

T4: RERQRAQSLNEA-T121A
T4 chain: RERQRAQSLNEA

T5: RERQRTQALNEA-S123A
T5 chain: RERQRTQALNEA

T6: RKRRSARRSAGG-S42A
T6 chain: RKRRSARRSAGG

T7: RKRRSSRRAAGG-S45A
T7 chain: RKRRSSRRAAGG

T8: RERQRTQSLNEA-T121/5123
T8 chain: RERQRTQSLNEA

B1: activated recombinant PKBβ (protein)
chain: KVTMNDFDYLKLLGKGTFGKVILVREKATGRYYAMKILRKEVIIAKDEVAHTVTESRVLQNTRHPFLTALKYAFQTHDRLCFVMEYANGGELFFHLSRERVFTEERARFYGAEIVSALEYLHSRDVVYRDIKLENLMLDKDGHIKITDFGLCKEGISDGATMKTFCGTPEYLAPEVLEDNDYGRAVDWWGLGVVMYEMMCGRLPFYNQDHERLFELILMEEIRFPRTLSPEAKSLLAGLLKKDPKQRLGGGPSDAKEVMEHRFFLSINWQDVVQKKLLPPFKPQVTSEVDTRYFDDEFTAQSITITPPDRYDSLGLLELDQRTHFPQFSYSASIRE

What was measured:
[1] = system: T1, Flag-tagged Twist-1 WT from starved HEK293 cells (not phosphorylated)
[2] = molecular target: T2, RKRRSSRRSAGG-S42/S45
[3] = molecular target: T3, GST-Twist-1 (full-length, substrate of …)
[4] = molecular target: T4, RERQRAQSLNEA-T121A
[5] = molecular target: T5, RERQRTQALNEA-S123A
[6] = molecular target: T6, RKRRSARRSAGG-S42A
[7] = molecular target: T7, RKRRSSRRAAGG-S45A
[8] = molecular target: T8, RERQRTQSLNEA-T121/5123

Molecule | Twist-1 S42 phosphorylation after serum stimulation (Western blot; shRNA against PKB) [1] | phosphorylation of synthetic peptide (in vitro kinase assay, 32P-ATP, scintillation counting); parent peptide, phosphorylated by implication [2] | in vitro kinase assays followed by mass spectrometry (MS) analysis [3] | phosphorylation of synthetic peptide (in vitro kinase assay, 32P-ATP, scintillation counting); no such loss, by implication [4] | phosphorylation of synthetic peptide (in vitro kinase assay, 32P-ATP, scintillation counting); almost complete loss [5] | phosphorylation of synthetic peptide (in vitro kinase assay, 32P-ATP, scintillation counting); almost complete loss [6] | phosphorylation of synthetic peptide (in vitro kinase assay, 32P-ATP, scintillation counting); no such loss, by implication [7] | phosphorylation of synthetic peptide (in vitro kinase assay, 32P-ATP, scintillation counting); parent peptide, phosphorylated by implication [8]
endogenous PKB kinase of HEK293 cells | Twist-1 S42 phosphorylation was not induced after serum stimulation of cells with a low PKB content | – | – | – | – | – | – | –
B1 | – | Only substitution of serine to alanine at positions 42 and 123 resulted in almost complete loss of phosphorylation of the corresponding peptide by PKB | confirmed that PKB phosphorylates Twist-1 in vitro on two residues S42 and S123 | Only substitution of serine to alanine at positions 42 and 123 resulted in almost complete loss of phosphorylation of the corresponding peptide by PKB | Only substitution of serine to alanine at positions 42 and 123 resulted in almost complete loss of phosphorylation of the corresponding peptide by PKB | Only substitution of serine to alanine at positions 42 and 123 resulted in almost complete loss of phosphorylation of the corresponding peptide by PKB | Only substitution of serine to alanine at positions 42 and 123 resulted in almost complete loss of phosphorylation of the corresponding peptide by PKB | Only substitution of serine to alanine at positions 42 and 123 resulted in almost complete loss of phosphorylation of the corresponding peptide by PKB
